{"source": "paper PMC3058932", "origin": "cited, not measured here", "key": {"[1]": {"biological_target": "GRP receptor (Homo sapiens) (UniProt P30550)", "sequence (P30550 whole entry)": "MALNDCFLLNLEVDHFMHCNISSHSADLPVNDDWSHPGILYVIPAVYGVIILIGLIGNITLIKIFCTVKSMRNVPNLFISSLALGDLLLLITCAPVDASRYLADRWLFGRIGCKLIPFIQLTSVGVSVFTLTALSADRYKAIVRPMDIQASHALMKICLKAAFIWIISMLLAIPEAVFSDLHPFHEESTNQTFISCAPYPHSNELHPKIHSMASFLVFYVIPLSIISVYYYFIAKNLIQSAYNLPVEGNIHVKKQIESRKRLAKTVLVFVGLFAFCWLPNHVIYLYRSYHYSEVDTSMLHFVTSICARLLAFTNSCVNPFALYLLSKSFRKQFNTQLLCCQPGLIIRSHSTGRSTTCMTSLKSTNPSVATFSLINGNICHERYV", "assay": "PC-3 membrane binding"}, "[2]": {"biological_target": "GRP receptor (Rattus norvegicus) (UniProt P52500)", "sequence (P52500 whole entry)": "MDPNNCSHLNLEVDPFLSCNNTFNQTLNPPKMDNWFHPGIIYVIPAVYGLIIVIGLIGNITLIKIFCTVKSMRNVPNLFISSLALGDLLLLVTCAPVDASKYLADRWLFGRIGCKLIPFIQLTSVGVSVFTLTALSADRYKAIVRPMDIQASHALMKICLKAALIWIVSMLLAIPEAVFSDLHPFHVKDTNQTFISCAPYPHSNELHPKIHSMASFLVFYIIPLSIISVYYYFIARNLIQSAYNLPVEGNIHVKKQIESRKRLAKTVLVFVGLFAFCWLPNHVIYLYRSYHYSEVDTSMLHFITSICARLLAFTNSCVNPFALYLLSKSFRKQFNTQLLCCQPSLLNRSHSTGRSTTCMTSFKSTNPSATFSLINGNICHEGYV", "assay": "rat brain membrane binding"}}, "data": [{"substance": "bombesin (from UniProt P84214)", "values": [{"measurement": "Ki", "setting": "[1]", "result": 1.7, "unit": "nM"}, {"measurement": "Ki", "setting": "[2]", "result": 4.3, "unit": "nM"}]}]}
